Values joined by “and” are separate entries in the source; they are usually repeats but may differ in a detail not shown here. Equal values may be shown once. Blank lines part the entries; values can stand above or below the binder they belong to.
Key:
[1] = target: T1, Low-density lipoprotein receptor-related protein 6 (LRP6), human, on cells (human, UniProt O75581 20-1613); assay: apparent KD, flow cytometry on HEK293 cells that express LRP6, curve fit
T1 construct: whole, on cells; also called effector antigen
Protocol: FIGS. 7A-7E depict the results illustrating characterization of anti-LRP6 scFvs and derived bsAbs. FIG. 7A depicts the results of anti-LRP6 scFv-phage screening by flow cytometry analysis. Individual scFv-phage clones were separately amplified from the 3rd round panning output against LRP6E1E2 or LRP6E3E4 domain. scFv-phage particles were incubated with parental HEK293 or LRP6-transfected HEK293 cells and detected by biotinylated anti-M13 IgG and PE-labeled streptavidin. Relative MFI values (folds of phage binding to LRP6+ cells against LRP6− cells) were plotted on a graph. FIGS. 7B and 7C depict the results of flow cytometry analysis for binding kinetics of E34N19 (B) or E12N21 (C) scFv-Fc to HEK293 cells. The apparent KD was calculated based on the non-linear curve fittings by Prism 5 program. FIG. 7D depicts the results of cell-binding analysis of mono- or bi-specific anti-LRP6 antibodies. Binding of E34N19 scFv-Fc, E34N19 IgG, H/6 TaFv-Fc, 6/H bsIgG, or H3 IgG (each 100 nM) to HEK293 cells originally expressing ALCAM was analyzed by flow cytometry. […]
The apparent antibody binding affinity was measured on target cells by FACS as described (An, Zhu). […] After 1 hr incubation, cells were washed and analyzed by FACS as described above. The apparent KD was determined by a curve fit method using MFI values as described (Benedict, An, Zhu).

[2] = target: T1, Low-density lipoprotein …; assay: cell-based or functional assay
[3] = target: T2, Activated leukocyte cell adhesion molecule (ALCAM), on cells (human, UniProt Q13740 28-583); assay: apparent KD on cells
T2 construct: whole, on cells; also called guide antigen
T2 sequence (looked up): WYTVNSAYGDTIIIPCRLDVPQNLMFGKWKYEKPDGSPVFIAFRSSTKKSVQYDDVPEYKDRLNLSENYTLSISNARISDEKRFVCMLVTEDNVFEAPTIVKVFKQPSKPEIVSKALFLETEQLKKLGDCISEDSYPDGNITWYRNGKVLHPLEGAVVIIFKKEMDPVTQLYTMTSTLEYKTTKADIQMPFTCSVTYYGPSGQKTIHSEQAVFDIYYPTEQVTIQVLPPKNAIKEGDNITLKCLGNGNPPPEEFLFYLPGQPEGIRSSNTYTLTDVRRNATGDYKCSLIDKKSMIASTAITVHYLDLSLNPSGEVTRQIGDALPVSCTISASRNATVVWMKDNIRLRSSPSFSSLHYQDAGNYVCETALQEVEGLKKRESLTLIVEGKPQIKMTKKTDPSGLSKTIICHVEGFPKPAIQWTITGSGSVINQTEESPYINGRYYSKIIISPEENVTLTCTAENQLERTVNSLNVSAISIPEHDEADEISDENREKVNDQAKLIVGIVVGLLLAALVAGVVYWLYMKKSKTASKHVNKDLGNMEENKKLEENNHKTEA

[4] = target: Low-density lipoprotein receptor-related protein 6 (LRP6), human, on cells (human) (UniProt O75581); assay: cell-based or functional assay
[5] = target: T3, Ephrin type-A receptor 2 (EphA2), human, on cells (human, UniProt P29317 24-976); assay: FACS
T3 construct: whole, on cells; also called guide antigen

[6] = target: T4, EphA2, murine, on CT26 cells (mouse, UniProt Q03145 26-977); assay: FACS on murine colon cancer cell line CT26 that expresses EphA2
T4 construct: whole, on cells; also called murine antigen
T4 sequence (Q03145 26-977): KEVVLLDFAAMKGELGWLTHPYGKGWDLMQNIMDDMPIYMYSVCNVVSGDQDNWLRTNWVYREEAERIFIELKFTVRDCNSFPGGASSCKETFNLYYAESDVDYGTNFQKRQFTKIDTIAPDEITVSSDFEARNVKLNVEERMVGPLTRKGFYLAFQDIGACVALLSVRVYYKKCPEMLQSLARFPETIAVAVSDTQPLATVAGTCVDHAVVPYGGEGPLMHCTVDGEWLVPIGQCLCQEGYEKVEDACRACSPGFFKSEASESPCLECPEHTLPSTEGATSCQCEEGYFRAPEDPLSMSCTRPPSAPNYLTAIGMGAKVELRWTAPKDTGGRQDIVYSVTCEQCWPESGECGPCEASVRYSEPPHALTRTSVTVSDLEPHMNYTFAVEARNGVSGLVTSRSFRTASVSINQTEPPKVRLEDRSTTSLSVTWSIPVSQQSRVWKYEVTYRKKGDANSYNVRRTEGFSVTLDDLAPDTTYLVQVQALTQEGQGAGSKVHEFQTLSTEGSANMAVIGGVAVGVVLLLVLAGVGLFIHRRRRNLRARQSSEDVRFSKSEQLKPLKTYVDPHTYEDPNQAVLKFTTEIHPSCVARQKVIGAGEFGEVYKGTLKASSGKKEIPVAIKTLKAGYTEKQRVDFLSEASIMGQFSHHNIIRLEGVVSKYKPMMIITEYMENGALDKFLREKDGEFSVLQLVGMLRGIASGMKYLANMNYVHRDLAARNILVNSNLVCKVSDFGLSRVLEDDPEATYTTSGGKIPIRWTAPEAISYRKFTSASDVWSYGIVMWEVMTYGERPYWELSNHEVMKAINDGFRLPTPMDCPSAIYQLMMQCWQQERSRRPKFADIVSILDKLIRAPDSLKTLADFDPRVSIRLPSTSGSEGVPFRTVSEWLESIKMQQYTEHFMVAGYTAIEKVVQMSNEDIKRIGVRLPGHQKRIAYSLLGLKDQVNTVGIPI

T1 sequence (O75581 20-1613): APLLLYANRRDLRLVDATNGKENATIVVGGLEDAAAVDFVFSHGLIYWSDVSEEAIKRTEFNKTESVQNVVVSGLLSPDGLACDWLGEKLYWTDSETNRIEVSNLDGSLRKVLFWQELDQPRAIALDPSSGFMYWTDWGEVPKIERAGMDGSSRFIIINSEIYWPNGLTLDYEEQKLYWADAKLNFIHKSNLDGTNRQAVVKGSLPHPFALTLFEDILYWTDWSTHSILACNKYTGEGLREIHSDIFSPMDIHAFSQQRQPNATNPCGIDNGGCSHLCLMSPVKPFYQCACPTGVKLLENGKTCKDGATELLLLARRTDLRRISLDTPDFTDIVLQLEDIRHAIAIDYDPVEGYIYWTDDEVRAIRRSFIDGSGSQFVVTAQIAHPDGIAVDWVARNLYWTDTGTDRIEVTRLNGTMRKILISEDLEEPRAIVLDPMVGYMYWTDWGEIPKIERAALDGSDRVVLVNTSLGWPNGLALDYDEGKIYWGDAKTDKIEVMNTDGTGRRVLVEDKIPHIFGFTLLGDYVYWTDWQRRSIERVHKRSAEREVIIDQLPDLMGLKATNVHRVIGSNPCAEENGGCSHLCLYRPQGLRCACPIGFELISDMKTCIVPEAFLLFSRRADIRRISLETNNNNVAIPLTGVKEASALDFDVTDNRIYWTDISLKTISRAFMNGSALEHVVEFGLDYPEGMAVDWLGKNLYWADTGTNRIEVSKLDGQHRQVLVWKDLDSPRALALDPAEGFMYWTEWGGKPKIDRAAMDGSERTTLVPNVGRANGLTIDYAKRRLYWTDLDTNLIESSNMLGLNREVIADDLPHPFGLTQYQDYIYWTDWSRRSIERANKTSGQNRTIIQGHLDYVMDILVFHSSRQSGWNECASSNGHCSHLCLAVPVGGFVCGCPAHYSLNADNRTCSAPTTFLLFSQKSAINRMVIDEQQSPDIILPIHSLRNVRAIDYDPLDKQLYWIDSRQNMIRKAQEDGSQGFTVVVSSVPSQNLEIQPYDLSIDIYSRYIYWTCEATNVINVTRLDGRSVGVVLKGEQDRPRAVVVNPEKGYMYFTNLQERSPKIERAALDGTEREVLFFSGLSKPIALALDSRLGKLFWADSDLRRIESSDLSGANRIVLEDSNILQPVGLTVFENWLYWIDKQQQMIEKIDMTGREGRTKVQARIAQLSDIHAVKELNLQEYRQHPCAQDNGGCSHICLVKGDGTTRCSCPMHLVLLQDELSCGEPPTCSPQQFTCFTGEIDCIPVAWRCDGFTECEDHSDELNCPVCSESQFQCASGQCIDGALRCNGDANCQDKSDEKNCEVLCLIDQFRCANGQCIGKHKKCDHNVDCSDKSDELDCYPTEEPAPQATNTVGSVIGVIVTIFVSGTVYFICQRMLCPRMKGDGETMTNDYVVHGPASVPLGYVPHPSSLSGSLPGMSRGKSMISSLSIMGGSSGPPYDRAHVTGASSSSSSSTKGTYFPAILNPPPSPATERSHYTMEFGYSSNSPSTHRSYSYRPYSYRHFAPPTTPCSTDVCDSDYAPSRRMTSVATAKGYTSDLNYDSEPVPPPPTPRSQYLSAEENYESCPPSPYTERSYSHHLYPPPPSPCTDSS
T3 sequence (P29317 24-976): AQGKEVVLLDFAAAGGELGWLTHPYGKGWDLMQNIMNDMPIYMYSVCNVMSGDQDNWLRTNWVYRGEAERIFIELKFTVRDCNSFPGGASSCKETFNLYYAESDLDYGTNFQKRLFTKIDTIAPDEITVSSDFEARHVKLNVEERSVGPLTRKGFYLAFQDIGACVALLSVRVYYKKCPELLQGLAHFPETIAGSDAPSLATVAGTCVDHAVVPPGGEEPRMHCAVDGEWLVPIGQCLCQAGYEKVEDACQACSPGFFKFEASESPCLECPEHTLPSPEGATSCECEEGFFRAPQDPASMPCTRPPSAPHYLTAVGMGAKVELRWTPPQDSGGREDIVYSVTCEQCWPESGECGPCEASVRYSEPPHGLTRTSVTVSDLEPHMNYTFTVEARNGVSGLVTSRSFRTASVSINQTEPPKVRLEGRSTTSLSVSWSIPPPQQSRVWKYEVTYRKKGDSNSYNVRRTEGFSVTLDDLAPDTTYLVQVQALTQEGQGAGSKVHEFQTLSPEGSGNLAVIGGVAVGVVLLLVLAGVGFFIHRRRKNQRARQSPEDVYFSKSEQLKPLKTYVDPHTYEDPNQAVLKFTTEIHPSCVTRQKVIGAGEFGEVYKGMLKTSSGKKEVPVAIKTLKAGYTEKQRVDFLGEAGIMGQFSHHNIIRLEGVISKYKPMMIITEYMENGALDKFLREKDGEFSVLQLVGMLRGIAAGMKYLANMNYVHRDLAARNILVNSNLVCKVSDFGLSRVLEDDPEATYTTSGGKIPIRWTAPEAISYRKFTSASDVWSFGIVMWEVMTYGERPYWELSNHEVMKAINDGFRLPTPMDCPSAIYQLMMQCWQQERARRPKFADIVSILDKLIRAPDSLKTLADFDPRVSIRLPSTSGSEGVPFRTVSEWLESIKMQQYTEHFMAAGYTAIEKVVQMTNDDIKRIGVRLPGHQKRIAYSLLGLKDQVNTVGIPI
Chain of Low-density lipoprotein receptor-related protein 6 (LRP6), human, on cells (human) (O75581 20-1613): as the sequence (O75581 20-1613) above

B2: H3 IgG (antibody, V domains shown)
VH: QVQLVESGGGLVQPGGSLRLSCAASGFTFSSYAMSWVRQAPGKGLEWVSAISGSGGSTYYADSVKGRFTISRDNSKDTLYLQMNSLRAEDTAVYYCASRSLLDYWGQGTLVTVSS
VL: NFMLTQNPAVSVALGQTVRITCQGDSLRSYYASWYQQKPGQAPLLVIYGKNNRPSGIPDRFSGSSSGNTASLTITGAQAEDEADYYCNSRDSSGNPVFGGGTKVTVL
notes: IgG; also called anti-ALCAM H3 IgG; guide antibody H3
Kd [3]: 0.00734 nM

B4: E12N21 scFv-Fc (Fc fusion)
scFv: QVQLQESGGGLVKPGGSLRLSCAASGFTFSSYWMSWVRQAPGKGLEWVANIKQDGSEKYYVDSVKGRFTISRDNSKNTLYLQMNSLRAEDTAIYYCAKTMTASAWLGGGRDSWGQGTLVTVSSGGGGSGGGGSGGGGSQSVLTQDPAVSVALGQTVRITCQGDSLRTLSTNWYQQKSGQAPVLVIYGNSNRPSGVPDRFSGSSSGNTASLTITGAQAEDEADYYCQSYDNSVRGSRVFGTGTKLTVL
notes: scFv gene cloned into unmodified pFUSE-hIgG1-Fc2; also called monoclonal E12N21; not shown: human IgG1 Fc of vector pFUSE-hIgG1-Fc2 (InvivoGen)
Kd [1]: ~5.2 nM
IC50, STF reporter, Wnt1-transfected HEK293 [2]: ~3.5 nM
IC50, Wnt1-induced STF reporter activity, HEK293 [2]: 2.63 nM

B6: E34N19 IgG (antibody, V domains shown)
VH: QVNLRESGGGLVQPGGSLRLSCAASGFTFSSYAMSWVRQAPGKGLEWVSAISGSGGSTYYADSVKGRFTISRDNSKNTLYLQMNSLRAEDTAVYYCAKVRGHGGNSGWVDYWGQGTLVTVSS
VL: QSVLTQDPAVSVALGQTVKITCQGDSLRTYYTSWYQQRPGQAPILVLYANTHRPSSIPDRFSGSSSGTTASLTITGAQAEDEADYYCNSRDSSGNYLFGGGTKLTVL
IC50, STF reporter, Wnt3a-transfected HEK293 [2]: 5.2 nM

Results, then the binder that gave them:

Kd [1]: ~1.4 nM
EC50 (so in the source), STF reporter, Wnt3a, HEK293 [2]: 3.02 nM
IC50, STF reporter, Wnt3a-transfected HEK293 [2]: ~3 nM and 3.43 nM
B1: E34N19 scFv-Fc (Fc fusion)
scFv: QVNLRESGGGLVQPGGSLRLSCAASGFTFSSYAMSWVRQAPGKGLEWVSAISGSGGSTYYADSVKGRFTISRDNSKNTLYLQMNSLRAEDTAVYYCAKVRGHGGNSGWVDYWGQGTLVTVSSGGGGSGGGGSGGGGSQSVLTQDPAVSVALGQTVKITCQGDSLRTYYTSWYQQRPGQAPILVLYANTHRPSSIPDRFSGSSSGTTASLTITGAQAEDEADYYCNSRDSSGNYLFGGGTKLTVL
notes: scFv gene cloned into unmodified pFUSE-hIgG1-Fc2; In some assays biotin-labelled as the detection reagent; also called monospecific E34N19; anti-effector mAb E34N19; not shown: human IgG1 Fc of vector pFUSE-hIgG1-Fc2 (InvivoGen)

Kd [3]: 0.388 nM
B3: PD32 (anti-ALCAM guide antibody, format not stated) (antibody, V domains shown)
VH: QVQLQESGGGLVQPGGSLRLSCAASGFTFSSYALSWVRQAPGKGLEWVSAISGSGGSTYYAGSVKGRFTISRDNSKNTLYLQMNSLRAEDTAVYYCAKGLIASHWGQGTLVTVSS
VL: SELTQDPAVSVALGQTVRITCQGDSLRSYYASWYQQKPGQAPVLVIYGKNNRPSGIPDRFSGSSSGNTASLTITGAQAEDEADYYCNSRDSSGIHLVFGGGTKLTVL
notes: Called 'guide antibody' and 'corresponding mAbs'; also called GPD32

IC50, STF reporter, Wnt3a-transfected HEK293 [4]: 0.0446 nM
B5: E34N19/H3 bsIgG (bispecific antibody, part only; not given: constant regions and CL-scFv linker, not shown: another chain or arm of the molecule; a dimerising Fc or GST; small tags and cut ends)
VH: QVNLRESGGGLVQPGGSLRLSCAASGFTFSSYAMSWVRQAPGKGLEWVSAISGSGGSTYYADSVKGRFTISRDNSKNTLYLQMNSLRAEDTAVYYCAKVRGHGGNSGWVDYWGQGTLVTVSS
VL: QSVLTQDPAVSVALGQTVKITCQGDSLRTYYTSWYQQRPGQAPILVLYANTHRPSSIPDRFSGSSSGTTASLTITGAQAEDEADYYCNSRDSSGNYLFGGGTKLTVL
scFv: QVQLVESGGGLVQPGGSLRLSCAASGFTFSSYAMSWVRQAPGKGLEWVSAISGSGGSTYYADSVKGRFTISRDNSKDTLYLQMNSLRAEDTAVYYCASRSLLDYWGQGTLVTVSSGGGGSGGGGSGGGGSNFMLTQNPAVSVALGQTVRITCQGDSLRSYYASWYQQKPGQAPLLVIYGKNNRPSGIPDRFSGSSSGNTASLTITGAQAEDEADYYCNSRDSSGNPVFGGGTKVTVL

binding result [5]: binds
binding result [6]: binds
B7: RYR (anti-EphA2 guide antibody, format not stated) (antibody, V domains shown)
VH: QVQLQESGGGLVQPGGSLRLSCAASGFTFSSYSMNWVRQAPGKGLEWVSYISSSSSTIYYADSVKGRFTISRDNAKNSLYLQMNSLRAEDTAVYYCARYRLPDFWSGYPNYGMDVWGQGTTVTVSS
VL: QSVLTQPPSVSGAPGQRVTISCTGSSSNIGAGYDVHWYQQLPGTAPKLLIYGNSNRPSGVPDRFSGSKSGTSASLAITGLQAEDEADYYCQSYDSSLSGHVVFGGGTKLTVL
notes: also called HCA-F1

Reference: patent publication US20190330365A1 (University of California, published 2019)
